The text below walks through data of patent US10426824 (Dana-Farber, dated 2019).

In this experiment the target is HLA-A3 (human). Briefly: competitive MHC binding assay against a reference peptide.

B1: E255K-B255-263 mutant BCR-ABL peptide (KVYEGVWKK) (peptide)
peptide: KVYEGVWKK
notes: Synthetic 9-mer; also called E255K-B (MUT) peptide; BCR-ABL peptide harboring the E255K mutation
One may read the IC50 as the concentration at which inhibition is half-maximal. Lower therefore signals inhibition by little substance. On to B1, for which the half-inhibitory concentration (IC50) came out at 17 nM.
